Reference: paper PMC4380771 (Methods (San Diego, Calif.), 2014)
Where “and” joins values, the source holds several entries; their conditions need not be identical. Identical values can stand only once. Like-named read-outs stand apart in the source and are kept apart here. Values belong to the compound of their own block, whether it stands above or below them.

Tests used:
[1] = molecular target: SynIIIC (Rattus norvegicus, UniProt O70441); experiment: isothermal titration calorimetry; format: binding
Chain of SynIIIC (O70441 89-403): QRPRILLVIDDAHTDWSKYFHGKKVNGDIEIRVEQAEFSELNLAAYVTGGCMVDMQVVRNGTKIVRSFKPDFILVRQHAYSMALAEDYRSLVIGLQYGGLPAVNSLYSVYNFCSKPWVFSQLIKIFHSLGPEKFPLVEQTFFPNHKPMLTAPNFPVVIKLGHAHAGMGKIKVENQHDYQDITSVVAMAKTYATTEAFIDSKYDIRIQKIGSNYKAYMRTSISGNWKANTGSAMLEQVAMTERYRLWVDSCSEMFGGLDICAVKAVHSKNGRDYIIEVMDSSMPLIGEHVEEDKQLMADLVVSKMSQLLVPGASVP

[2] = molecular target: T1, Tp0655 (Treponema pallidum, UniProt O83661); experiment: isothermal titration calorimetry; format: binding
T1 sequence (O83661 24-348): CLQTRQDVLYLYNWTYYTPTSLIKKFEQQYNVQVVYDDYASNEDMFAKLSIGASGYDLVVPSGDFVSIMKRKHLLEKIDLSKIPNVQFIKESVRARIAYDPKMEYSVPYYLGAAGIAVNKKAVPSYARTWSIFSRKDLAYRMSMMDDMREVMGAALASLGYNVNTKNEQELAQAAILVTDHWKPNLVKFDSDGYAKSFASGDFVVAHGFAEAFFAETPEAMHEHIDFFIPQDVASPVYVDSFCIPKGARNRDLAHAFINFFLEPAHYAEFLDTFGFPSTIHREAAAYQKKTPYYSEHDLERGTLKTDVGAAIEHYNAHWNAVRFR

[3] = molecular target: HIF2α (Homo sapiens, UniProt Q99814); experiment: isothermal titration calorimetry; format: binding
Chain of HIF2α (Q99814 239-350): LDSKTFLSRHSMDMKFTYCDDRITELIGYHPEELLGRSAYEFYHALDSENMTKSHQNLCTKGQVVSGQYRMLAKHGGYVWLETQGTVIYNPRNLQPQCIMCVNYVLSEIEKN

[4] = molecular target: bovine α-chymotrypsin (bovine); experiment: ITC
[5] = molecular target: bovine α-chymotrypsin (bovine); experiment: ITC; remark: listed apart in the source
[6] = molecular target: bovine α-chymotrypsin (bovine); experiment: ITC; remark: listed apart in the source
[7] = molecular target: hLF (UniProt P02788); experiment: ITC
Chain of hLF (P02788 20-710): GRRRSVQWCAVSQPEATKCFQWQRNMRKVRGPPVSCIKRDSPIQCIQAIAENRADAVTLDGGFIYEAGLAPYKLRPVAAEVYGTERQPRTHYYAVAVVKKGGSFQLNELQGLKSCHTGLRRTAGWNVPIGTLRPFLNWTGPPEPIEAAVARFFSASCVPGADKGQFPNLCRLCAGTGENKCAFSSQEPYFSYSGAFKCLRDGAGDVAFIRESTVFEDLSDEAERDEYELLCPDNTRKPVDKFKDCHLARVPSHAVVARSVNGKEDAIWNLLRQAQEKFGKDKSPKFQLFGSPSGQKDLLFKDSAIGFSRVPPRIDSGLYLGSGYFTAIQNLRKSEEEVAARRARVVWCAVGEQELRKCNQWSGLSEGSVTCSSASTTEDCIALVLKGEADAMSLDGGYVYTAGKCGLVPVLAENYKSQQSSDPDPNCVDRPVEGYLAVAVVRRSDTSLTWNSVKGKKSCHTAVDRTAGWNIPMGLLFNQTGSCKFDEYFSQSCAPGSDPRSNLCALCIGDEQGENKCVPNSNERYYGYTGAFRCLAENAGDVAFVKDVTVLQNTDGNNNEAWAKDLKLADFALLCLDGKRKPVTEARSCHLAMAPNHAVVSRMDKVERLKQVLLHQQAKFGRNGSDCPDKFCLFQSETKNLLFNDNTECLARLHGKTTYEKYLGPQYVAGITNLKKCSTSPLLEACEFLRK

Kd [1]: 0.136 µM
Compound: Nc1ncnc2c1ncn2[C@@H]1O[C@H](COP(=O)(O)OP(=O)(O)OP(=O)(O)O)[C@@H](O)[C@H]1O [ATP]

Compound: NCCCN [DAP]
Kd [2]: 36.2 µM

Kd [3]: 0.105 µM
Compound: O=[N+]([O-])c1c(Nc2cc(F)cc(Cl)c2)ccc2nonc12 [HBA, N-(3-Chloro-5-fluorophenyl)-4-nitrobenzo[c][1,2, 5]oxadiazol-5-amine]

Compound: NCCCCN [Putrescine]
Kd [2]: 0.117 µM

Compound: NCCCCNCCCN [Spermidine]
Kd [2]: 2.37 µM

dH [4]: 10.5 kcal/mol (2×) and 10.3 kcal/mol | logKa [4]: 6.99 and 7 and 6.9 | dH [5]: 10.3 kcal/mol and 10.9 kcal/mol and 9.7 kcal/mol | logKa [5]: 7.27 | dH [6]: 10.5 kcal/mol (2×) and 10.4 kcal/mol | log(Ka) [6]: 6.89 and 6.98 and 7
Compound: Soybean trypsin inhibitor (from UniProt P01070 25-205) (natural protein)

Compound: Tp34 (files named H70ATp34hLF...) (from UniProt P19478 20-204) (natural protein)
dH [7]: 4.9 kcal/mol

Compound: Tp34 (from UniProt P19478 20-204) (natural protein)
Kd [7]: 11.3 µM and 11 µM and 22.3 µM | log(Ka) [7]: 4.95 | logKa [7]: 4.96 and 4.65
